Test results: PMC9482650, “Quantitative fragmentomics allow affinity mapping of interactomes” (Nature Communications, 2022)

T1: DVL1, O14640
T1 sequence (O14640 246-333, limits assumed, looked up): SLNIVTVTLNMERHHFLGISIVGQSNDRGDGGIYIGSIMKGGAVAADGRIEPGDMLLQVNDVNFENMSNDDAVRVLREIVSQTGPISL

T2: GIPC1, O14908
T2 sequence (O14908 128-223, limits assumed, looked up): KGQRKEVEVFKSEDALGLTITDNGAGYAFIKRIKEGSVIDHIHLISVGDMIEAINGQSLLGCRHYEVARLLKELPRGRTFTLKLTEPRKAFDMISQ

T3: MAGI2_1, Q86UL8
T3 sequence (Q86UL8 12-111, limits assumed, looked up): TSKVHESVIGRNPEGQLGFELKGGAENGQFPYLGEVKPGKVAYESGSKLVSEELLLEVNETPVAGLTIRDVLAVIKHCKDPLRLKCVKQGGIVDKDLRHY

T4: MPDZ_6, O75970
T4 sequence (O75970 1003-1099, limits assumed, looked up): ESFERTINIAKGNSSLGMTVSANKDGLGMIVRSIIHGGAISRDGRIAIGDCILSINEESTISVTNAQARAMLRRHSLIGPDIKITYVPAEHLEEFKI

T5: NHERF3_2, Q5T2W1
T5 sequence (Q5T2W1 129-225, limits assumed, looked up): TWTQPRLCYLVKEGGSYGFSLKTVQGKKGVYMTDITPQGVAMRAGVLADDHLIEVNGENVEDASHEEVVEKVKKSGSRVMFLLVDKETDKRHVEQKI

T6: PARD6G, Q9BYG4
T6 sequence (Q9BYG4 153-261, limits assumed, looked up): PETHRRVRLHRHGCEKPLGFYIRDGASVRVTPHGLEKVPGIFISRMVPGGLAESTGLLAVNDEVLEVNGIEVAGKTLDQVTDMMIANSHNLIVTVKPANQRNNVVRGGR

T7: PDZD4, Q76G19
T7 sequence (Q76G19 125-224, limits assumed, looked up): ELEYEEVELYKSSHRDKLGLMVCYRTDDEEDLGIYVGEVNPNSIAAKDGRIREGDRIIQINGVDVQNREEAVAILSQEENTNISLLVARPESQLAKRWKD

T8: PDZD7_1, Q9H5P4
T8 sequence (Q9H5P4 81-178, limits assumed, looked up): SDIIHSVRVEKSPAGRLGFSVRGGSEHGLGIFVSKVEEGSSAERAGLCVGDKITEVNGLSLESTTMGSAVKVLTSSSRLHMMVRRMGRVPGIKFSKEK

T9: PREX2_2, Q70Z35
T9 sequence (Q70Z35 672-764, limits assumed, looked up): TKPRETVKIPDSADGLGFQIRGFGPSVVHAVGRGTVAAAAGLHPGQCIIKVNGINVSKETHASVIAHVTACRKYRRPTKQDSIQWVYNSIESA

T10: PTPN13_4, Q12923
T10 sequence (Q12923 1783-1878, limits assumed, looked up): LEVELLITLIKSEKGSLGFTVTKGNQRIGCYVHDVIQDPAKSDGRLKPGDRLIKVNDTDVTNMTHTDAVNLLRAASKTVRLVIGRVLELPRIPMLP

T11: PTPN13_5, Q12923
T11 sequence (Q12923 1877-1975, limits assumed, looked up): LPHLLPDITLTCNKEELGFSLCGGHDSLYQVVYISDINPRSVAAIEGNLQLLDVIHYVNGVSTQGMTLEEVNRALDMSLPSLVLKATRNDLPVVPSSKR

T12: PTPN4, P29074
T12 sequence (P29074 512-599, limits assumed, looked up): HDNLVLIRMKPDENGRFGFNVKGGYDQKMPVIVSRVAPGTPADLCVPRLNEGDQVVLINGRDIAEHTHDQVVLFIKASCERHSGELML

T13: TJP3_1, O95049
T13 sequence (O95049 6-103, limits assumed, looked up): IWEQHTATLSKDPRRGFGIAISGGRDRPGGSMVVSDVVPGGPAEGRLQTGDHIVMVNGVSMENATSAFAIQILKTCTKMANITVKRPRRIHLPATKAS

T14: USH1C_2, Q9Y6N9
T14 sequence (Q9Y6N9 206-303, limits assumed, looked up): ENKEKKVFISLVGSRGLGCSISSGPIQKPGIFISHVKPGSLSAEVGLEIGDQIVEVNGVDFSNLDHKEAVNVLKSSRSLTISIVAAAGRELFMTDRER


What was measured:
Test in all cases: holdup assay
Set-up in all cases: key: below the threshold = too weak to quantify, mostly under pKd 3.1 to 4
DVL1, O14640 = biological target: T1, DVL1, O14640; conditions: plain residues with an end cap or a label only (N-terminal biotin on a linker: (peg)3)
GIPC1, O14908 = biological target: T2, GIPC1, O14908; conditions: plain residues with an end cap or a label only (N-terminal biotin on a linker: (peg)3)
Inadl_7, Q8NI35 = biological target: Inadl_7, Q8NI35
LIMK1, P53667 = biological target: LIMK1, P53667
MAGI1_3, Q96QZ7 = biological target: MAGI1_3, Q96QZ7
MAGI2_1, Q86UL8 = biological target: T3, MAGI2_1, Q86UL8
MAGI3_4, Q5TCQ9 = biological target: MAGI3_4, Q5TCQ9
MPDZ_6, O75970 = biological target: T4, MPDZ_6, O75970
NHERF3_2, Q5T2W1 = biological target: T5, NHERF3_2, Q5T2W1
PARD3B_2, Q8TEW8 = biological target: PARD3B_2, Q8TEW8
PARD3_1, Q8TEW0 = biological target: PARD3_1, Q8TEW0
PARD6G, Q9BYG4 = biological target: T6, PARD6G, Q9BYG4; conditions: plain residues with an end cap or a label only (N-terminal biotin on a linker: (peg)3)
PDZD4, Q76G19 = biological target: T7, PDZD4, Q76G19
PDZD7_1, Q9H5P4 = biological target: T8, PDZD7_1, Q9H5P4
PREX2_2, Q70Z35 = biological target: T9, PREX2_2, Q70Z35
PTPN13_4, Q12923 = biological target: T10, PTPN13_4, Q12923
PTPN13_5, Q12923 = biological target: T11, PTPN13_5, Q12923
PTPN4, P29074 = biological target: T12, PTPN4, P29074
SCRIB_4, Q14160 = biological target: SCRIB_4, Q14160
TJP1_1, Q07157 = biological target: TJP1_1, Q07157
TJP3_1, O95049 = biological target: T13, TJP3_1, O95049
USH1C_2, Q9Y6N9 = biological target: T14, USH1C_2, Q9Y6N9
[1] = plain residues with an end cap or a label only (N-terminal biotin on a linker: (peg)3)
[2] = modified: phospho on T at position -2 from the C-terminal residue

Sequence of Inadl_7, Q8NI35 (Q8NI35 1219-1332): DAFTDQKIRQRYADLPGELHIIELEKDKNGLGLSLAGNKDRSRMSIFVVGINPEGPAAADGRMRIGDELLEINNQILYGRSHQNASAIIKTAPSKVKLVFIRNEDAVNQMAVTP
Sequence of PARD3_1, Q8TEW0 (Q8TEW0 264-372): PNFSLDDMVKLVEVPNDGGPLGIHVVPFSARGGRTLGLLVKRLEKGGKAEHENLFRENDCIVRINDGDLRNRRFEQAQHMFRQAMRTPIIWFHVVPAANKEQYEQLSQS
Sequence of MAGI3_4, Q5TCQ9 (Q5TCQ9 716-815): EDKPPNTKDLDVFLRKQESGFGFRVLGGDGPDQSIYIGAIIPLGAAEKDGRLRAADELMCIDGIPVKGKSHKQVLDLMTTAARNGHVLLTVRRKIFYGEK
Sequence of PARD3B_2, Q8TEW8 (Q8TEW8 376-471): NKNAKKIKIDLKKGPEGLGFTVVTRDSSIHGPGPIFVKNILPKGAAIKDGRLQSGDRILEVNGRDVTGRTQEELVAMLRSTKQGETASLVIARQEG
Sequence of MAGI1_3, Q96QZ7 (Q96QZ7 638-725): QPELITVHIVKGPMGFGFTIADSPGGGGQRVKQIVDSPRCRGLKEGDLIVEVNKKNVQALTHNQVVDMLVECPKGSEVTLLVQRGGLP
Sequence of LIMK1, P53667 (P53667 155-268): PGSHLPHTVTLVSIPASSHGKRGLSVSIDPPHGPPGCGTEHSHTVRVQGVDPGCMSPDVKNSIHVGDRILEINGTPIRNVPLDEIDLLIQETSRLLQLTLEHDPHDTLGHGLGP
Sequence of SCRIB_4, Q14160 (Q14160 1095-1204): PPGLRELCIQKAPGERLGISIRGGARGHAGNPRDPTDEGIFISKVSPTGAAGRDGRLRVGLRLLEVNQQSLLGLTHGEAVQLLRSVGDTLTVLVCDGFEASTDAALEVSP
Sequence of TJP1_1, Q07157 (Q07157 18-120): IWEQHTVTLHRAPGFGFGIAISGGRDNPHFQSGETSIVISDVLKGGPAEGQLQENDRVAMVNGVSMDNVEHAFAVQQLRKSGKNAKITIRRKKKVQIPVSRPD

Binder	pKd (DVL1, O14640)	pKd (GIPC1, O14908)	pKd (Inadl_7, Q8NI35; [1])	pKd (LIMK1, P53667; [1])	pKd (MAGI1_3, Q96QZ7; [1])	pKd (MAGI2_1, Q86UL8; [1])	pKd (MAGI3_4, Q5TCQ9; [1])	pKd (MPDZ_6, O75970; [1])	pKd (NHERF3_2, Q5T2W1; [1])	pKd (PARD3B_2, Q8TEW8; [1])	pKd (PARD3_1, Q8TEW0; [1])	pKd (PARD6G, Q9BYG4)	pKd (PDZD4, Q76G19; [1])	pKd (PDZD7_1, Q9H5P4; [1])	pKd (PREX2_2, Q70Z35; [1])	pKd (PTPN13_4, Q12923; [1])	pKd (PTPN13_5, Q12923; [1])	pKd (PTPN4, P29074; [1])	pKd (SCRIB_4, Q14160; [1])	pKd (TJP1_1, Q07157; [1])	further results
RYEDTTLVEDTVL [WNV-NS5, Q9Q6P4]	below the threshold	below the threshold	below the threshold	below the threshold	below the threshold	below the threshold	below the threshold	3.94	below the threshold	below the threshold	below the threshold	below the threshold	below the threshold	below the threshold	below the threshold	below the threshold	below the threshold	below the threshold	below the threshold	below the threshold	pKd (TJP3_1, O95049; [1]): below the threshold; pKd (USH1C_2, Q9Y6N9; [1]): below the threshold
RRRRSQSRESQC [HBV-HBc, P03193]	below the threshold	5.58	below the threshold	below the threshold	below the threshold	below the threshold	below the threshold	below the threshold	below the threshold	3.85	below the threshold	below the threshold	below the threshold	below the threshold	below the threshold	below the threshold	below the threshold	4.94	below the threshold	below the threshold	pKd (TJP3_1, O95049; [1]): below the threshold; pKd (USH1C_2, Q9Y6N9; [1]): 4.09
QQSMSSADSTQA [SARS-Cov2-N, P0DTC9]	below the threshold	4.46	below the threshold	below the threshold	below the threshold	below the threshold	below the threshold	below the threshold	below the threshold	below the threshold	below the threshold	below the threshold	below the threshold	below the threshold	below the threshold	below the threshold	below the threshold	below the threshold	below the threshold	below the threshold	pKd (TJP3_1, O95049; [1]): below the threshold; pKd (USH1C_2, Q9Y6N9; [1]): below the threshold
SSRTRRETQL [HPV16-E6_-2P, P03126]																					pKd (Inadl_7, Q8NI35; [2]): below the threshold; pKd (LIMK1, P53667; [2]): below the threshold; pKd (MAGI1_3, Q96QZ7; [2]): below the threshold; pKd (MAGI2_1, Q86UL8; [2]): below the threshold; pKd (MAGI3_4, Q5TCQ9; [2]): below the threshold; pKd (MPDZ_6, O75970; [2]): below the threshold; pKd (NHERF3_2, Q5T2W1; [2]): below the threshold; pKd (PARD3B_2, Q8TEW8; [2]): below the threshold; pKd (PARD3_1, Q8TEW0; [2]): below the threshold; pKd (PDZD4, Q76G19; [2]): below the threshold; pKd (PDZD7_1, Q9H5P4; [2]): below the threshold; pKd (PREX2_2, Q70Z35; [2]): below the threshold; pKd (PTPN13_4, Q12923; [2]): below the threshold; pKd (PTPN13_5, Q12923; [2]): below the threshold; pKd (PTPN4, P29074; [2]): below the threshold; pKd (SCRIB_4, Q14160; [2]): below the threshold; pKd (TJP1_1, Q07157; [2]): below the threshold; pKd (TJP3_1, O95049; [2]): below the threshold; pKd (USH1C_2, Q9Y6N9; [2]): 4.45
